Measurements reported in the DeepSol protein solubility set.

Test: soluble on expression in E. coli; label from the status in PepcDB or PDB records

Row | Sequence | soluble on expression in E. coli
1 | MAGLVDRVSGARLDPAAEAEIRYLEAMIARLEAGEEDPEDFRVFRLKNGIYGIRGRPEHHMIRIKLPVGRITPEGLRVLADVAERYAENRLAHVTTRQAVQLHHVHRRDVPKVLRAVNAVGLTTREACGHSIRAITCCPYAGVSPEEPFDVTPYAEAAYRYFLRHPVGQNLPRKFKIAFEGCAADHARTPIHDIGVVAALEGGKRGFRVYVGGGLGAAPMSAELLEAFTPEEDLLPTMLAIVRLFDRYGNRKVLTQARLKFLVKKWGIAAFREAVREERRLVKLTASGEDLEAWAPPPEPEPPRLPSPPKKPFSFAPGFDAWRRTNLFKQKQEGFYTVTVRLPLGDITPEGLRALAAIAETYAAEVRSAISQNLLLRFVPEEALGGLYEALLEAGLALPEAHTLLDITRCPGADTCNLAITRSRGLAQALEAHLATLPLAQDPGAKAIGVKISGCPNSCGQHHIADIGFYGSSRKVGEREVPHYVLLLGGRTREGEARFGQVVGRLPARRVPEAVERILKRYLEERQNGESFQAYLDRVGAASFKPLLQELQEVPPYEEAPEFYQDLGAEGEAFSVQLGRGECAV | soluble
2 | MAGSDPAAPAAPAAAAPDTVKILIAGGFGVGKTTMVGSVSEIAPLRTEEPLTAAGLDVDDLDGIAEKDATTVALDFGRITIGSELVLYLFGTPGQQRFWFMWNDLAIGALGAVVLIDVRRPESSFAAVDFFERRGIPFVIGVNGFHGLHPYTPEEIREALALPERAQVLLCDARERESCRDVLIALIDQLIAARLEHHHHHH | not soluble
3 | MAHHHHHHMAALKNKIHRIGKRKGATLKDVSAWRWIKTAARHFKQEGKIFVPNCTEIMKSSHGRERAPQNPDWYYIRCAAVLRAIYLRPGVGYGGLSKRFGNKKNYGSRPEHTVTSSTGPLHWACKSLTKLGLVEPGAQSGQRLTRKGHKFADSLAFQVQIRKFGAST | soluble
4 | MAHHHHHHMADQIYHKLINENIKMLCNDLLPNEKKDEKKKEYYNNMNINCSSKCEELCNNINDRLQKIKDIVHLRSTKANGILIETLNYIKEYIKEIEKYIQIFNKLIYEENRAYLFIEEIFNTLENQNQNIQKIYNICSKNIVITKNNNELILKNPKACSSLSYEFVNNLMNSGQQKNNNNNNNKKEQIVQQHNIENQGANYLN | not soluble
5 | MAHHHHHHMADWQGWYQRMLDVHNRNVSLRCRICDLQRLDGNGVQFVDMQTERRLRILAQHRVGMGVLKLDADKYEDQADNVTFGTTKLSELLADARKAQLGEEYWPSVELKVRKPSGQSKAHYSLIDNERIEKRSRELYEKYRDAKKRSLFVTPMETWLEVKGMQVRKSVDNADEDGYTLDALQDMMDGDDEDKV | not soluble
6 | MAHHHHHHMAHGAAQCTLAAPGCVYLTPEQEEQLVDRLYTQSLLQKEATLAELDARYYPVTASQTISQETLQKSVQRQVDVEMERRQQRRKEMDAMAVAKAMGHASGSRAAASKKTVTAEETDVSVRRLYDDALAQKKARKAESERLYAFHPEDLKSAKMSKAALQESVNRMSKPKKTEFAVAEVNKIYGL | soluble
7 | MAHHHHHHMAKEVTTNHCNNSKWWKGRPYAKIPDGPAQRQAAVTISAILATAEATRLKHDNLKSTAAQAHSLAITAIKDAFYGKGETEAGDAFAYTKAEKCGRTTATGTAGAAIVEDLICLCTKGGGGQTTECYTSGPADVGKNKVGGVKVIVNDMIDHCPNISAELHLKPALITRRIAAFYAELGRQDGKKQYNKKSKNRGSGCNWMCSARS | not soluble
8 | MAHHHHHHMAKLLPPPFHGYIRKMFFPLRNAASASRKCCLHTHVQQKNGMMKTTPLISKRSYFTSLYDTKTEKTKLMNEMDDLYDHILTSNWNDSVHLVLNVSIWEGILNSIEDKVKLYEQDEDIMKKKKIINEIFDVLFILEDLRDHVNELLEQSSRASGLAGTHILASFKIENMNEHIEFLKTKYDELLLKYPLYKYQIDMVLGKGLALLRQKYNFEWRHMHNFFF | not soluble
9 | MAHHHHHHMALIQTAHDACSRKVHCVRKGYLNDPFVSFFEKDHTIVNSPLMNRGTWLRTTAFENCVRGFATAAGQPIQVINFGAGMDTLYFRLKHSDPQFPVQKFMELDLADLVAEKERIIKRHSEMHSLVGSQYVLVSCDLYDAKGVAKALKEHLHGGTPTIMIAEMVFVYIEGSVTTNLLRTVMSDVIEPGTKTMLVTYDAIQPFDRFGKVMVENLQHFGADFKGIGDFPTPEAHAGRCSELGFKAVKSVTMKNLYLGVPRQIQIRLNKLEMIDDWEEWNLMHEHYCFVVASTEDAPLPKLF | not soluble
10 | MAHHHHHHMANDDPKEPQPAVLNPEVDQQDTSVNGDDGDAERDGGKDVPVFTPAGARVEVHPLVLLSLVDHYARVNAKVSQKRRVAGLLLGRHLSHPGGIQVLDINNSFAVPFDEDPQNPDVWFLDTNYAEEMFLMFRRVHPKVRIVGWYSAGPSCAVQPNDMLLHLLIADRFSLNPVYCIVNTDPNNKGVPVLAYTTVHGRDGARSLEFRNIPTHLGAEEAEEIGIEHLLRDLTDSTITTLSAQVQERELSLDHLGRVLQSIEEYLNDVAEGTMPISEDVLSVLQEVISLQPHIYHLKTSTDMVRHANDQAIAMFIAAIGRCVCTLYDVIANRRRIAREIQEVRARRERSLKEKLGNEQHKAKEAATEESRKEGAAKN | not soluble
11 | MAHHHHHHMAPSELHKLSYWEEVYQGEKENYEEANIQPEEWFEENCDKIINWMSNHFSEEEKKEQVAILDVGCGNGLFLHKLHQRGFGNLCGFDFSASAIELAKKLFVGCGGEGEEDSRINRGEEPTDVYVQVLDIYNIEDEIKENSKLKKKYKLINDKGTFDIFFMNDKAQEYFKHVSFFFQVDTIFCLTSCNACKEELLSIVNHFNETNGKFQLTLFDEIRYESITFGGVKGQIITTLIFACS | soluble
12 | MAHHHHHHMAQRVHYRRHNHYNTKSNKVRPVRTPGGKLTIHVVKKKAGKPKCADCKTAIQGVKALRPADNYRARRKNRTVARAYGGSICARCIRERIMRAFLFEEQKCVRQVLKEKKKQEKKVKKVKKEKKKVNAKEVKKTATDNKKAKKVADKKKGK | not soluble
13 | MAHHHHHHMARTLLLNIQHHQPDLGLSEVDIELGMLAGLLHDVGHGPFSHLFEDVVSRRCGIEFNHEDMSEKIARRVLRDLVPQTHVDVVVGLMRGKALLGITYGEIISNKRNGIDVDRLDYFIRDSMCCFGKPTVDVRVNRLFNSARIVCEEGQWQLGFEQKLALSLREIFTLRAKLHKNVYQHQVTKAIGHMIGDVIHAAAPHFRVGGHTLVECAQDETLFLKLGDWILEAIEASEAPHLAEAHAILHRLRTRDIYRVAYSSALDITMRAPMAAVDWPAAILEHAHPSFPLNADDFIAEVVVINQGKGTEDPLESVLFFNPKKPSQPLTRLKPAEDLKHGSPLFTPLQFEERTLMVFERRPTNGAVQRACERLNADPKYAAFFTDSLPFYNTK | soluble
14 | MAHHHHHHMASFNSLGSGAGDSAEAVTRLQEVLRDICATERRQEKTWLNVQPCVLNAVKLLATTAQVYAERVRQLEDVLQRLQQYTTVLVRDREVKEERYRLDAAAHREEADELWKRLLRLEAQQQEPSLQIDQRASEAFKASCKVAVEARVAPLQQELQGLRHRLKALTLSRPYSSHYNRHVRSSSVASNSSALTMRDHYYAGSDGVAASQHHHHSAASSSSTSSLLSLASSTASSLDRHEQYPRRGRIETTSAPAFTPRALASATAAASPSTQRMMREVQRLRRQWQHFLQSVPAALAQGKGSCRAGLRRRDISGSPSRRLSRLTSKGGRRDLTGGLSDVTRANGEGMESIRGSSPQPFYVPAHHPPSSSPTDAVLPKYSSGPTRARSGARATESSTALPASGRRVRWYWLGDAHSHFSTAVRRAENDFAAAKPLSERPQPALSGVSPALPWTECHAFDGRTDCWYSLGTWPTHRRHLREVERAVEEGASRNSGDVSLGWLKWTLSLVSWPDTSTMLVHRAGIYMVRVCLVRHCASASLCSGAGRAESAGHDCGSGGALALCMNGVAVAGLREVVTHALLYTHPATSPADSAAPWWVTRGRSRSTCAYAGNYCSAVDGAAHSPACASPGGSPSRRRFHRDIADATQRQRPCCEPAQLHTNTLTACLFLPAGATLQVRCRGLHNTKTIHEAFCELEYVV | not soluble
15 | MAHHHHHHMASLKERDTVAPAEIVAGVTASGPAGISAEELHKVLNSSEHASVVVVDVRNADEYASFHIPGSINKPFQELNFAQLADEVAAHTNHAAHMLVFVSAQSPDVDDLAAREYINEYEKSHAATPTKDSVRVLLGGLYTWSQIYSA | soluble
16 | MAHHHHHHMASVGRFVQTADPAVTALESPPLPTETRLWRQSPDCQSESDSNRVSGSVLDSVKSNGGPKHASTARLHASQDLPTSVTRFLCLSSSSNSAAAKDLRRQLLVVRDCCVALGNKVKGSELLLLGGSQLSRKVEAMADFNSCLGVIFAASLTFTGETEGVAKDTLCSVVEMLKSAQESGDEKVFRAAVVKIVNRILLCTPLRPPARNAAKETARKSAGKQEQHAEQEPKLEDECLDFLTVEDGVPVLLECVWKRWLRYFEDGYVRYVKKLMAEERQALEAAAAAAAADDYNGEEAQYVDGVSATTTQTISTVPLFTTCQDYWKSPASAYAQFCYILLAIFFVRTKDFSLNYLARVTKLVQYFTYQLEFEDGEPIAVRTDTDAEEDSAQSEDEDDDRTPPQQEGPRKEKQVHSLPMPEYDKAVTQRRFRMSRRSSSQGLVPTVVSFKKAEKPRRHCHKCFFTDALPGDLRPSVEAVRQEEAEAAARDSEEHSHLPVVRRSANLDLSEHSISPQREREQLDACDASMESVQGV | not soluble
17 | MAHHHHHHMAVGKNKRTSKGKKGGKKKVTDVFTKKEWYDLKAPKMFLVRNFGKTLVTKTIGKKLATDSLKGRIYEVNLADLNNDEDQAHKKIKLSCDHIINRDCYTDFCGLSITRDKLCSLIRKGYTLIEGHTDVKTLDNYHLRMFCIAFTKKRQNQTKSTCYAQTSQIKKIRKKMVDIMTAEASKVLLKDLVKKFIPESIGKEIEKQCKKIYPLQNVLIRKVKILKRPKLDISKLMELHTDPKEESGKNVNALPESKEATNILTAELKH | not soluble
18 | MAHHHHHHMAVSQLLEMKLITRPRANLTQENVNAMVEFDYELAKKAQIAVDNNLPVNFFDLEYIDKPEYLAQLLEEKNILEKTREEVLKREKGNYKTPEILKNYKRVEVPREWRQELEIDEKILKAQPGLKENIELQKIMHNYVQSKFKSKVPGQPQKKHVKG | soluble
19 | MAHHHHHHMCAALSPAHFQLRVKILSEAAKHVPETGFTNAALAASLKSIGVEDITDRTLSQIFNRGFPIALVEHIVKSTNLHVQRELESVFSKDAIIKSIDSNVDAFVQNRLLLPTEKNVVEKAILSKLELLIPLAEHWPSAVALEYLPANLPYTVMNLAEFVDTTVYYMERATTLGELLDPARRILRSKAMASRIRSGEVDSNGASPTSEFLKSFLKGISLSSGPYAGPSALNLGWYCKRAQVAIVYGAVTTSLLGDVSQNAADTRSLTKAAVETVF | not soluble
20 | MAHHHHHHMCSDVKFSERLTTSPAVVTGFLSPTLRKVMKATMKNSDFNDNTNNSNNMNMFQNLPATLELNPSHTIVTSIYHLKNTNQEVAKLLVQQLYDNACIAAGILEDPRSLLSKLNELLLLTARYAYHYEKKDIQENTKDQPIDVKDNTMAIDNIVNTKENNTNDDSVMKEAQSSNL | soluble
21 | MAHHHHHHMCSVLILASTCRRRFSNVHLTPAGTVLNSNSALISRRINRRKMKNCNNNDLLKVLKMETTYNELPAHNLLMSSKNDINKLFDYINKNEELSKLMNSCGTYVYLKYLGVVIFSIKENVQISHLSEFIQYLLNKNVFGSSTFTKIRKSKDSDTYNAPFIICLVLIVRVCLSPFLNNILYCHMQNEIITFIIFKPTKKSVHCFFSFFTILL | soluble
22 | MAHHHHHHMCVRTWQKCPGLVSVKHRCIGGTLTNDGLRTEQYSHAPGPVRYFFLCLYDALLAHQQRLDQYWLNPLYQLNVHSFPFVYLYIVHFNTKIIFSFSFKANKNFFPLRLTTGKNCRKTKSTCRQPPTPNIDDRSSL | not soluble
